# Assay results: patent US9018171B2, “Uses of an immunomodulatory protein (GMI) from Ganoderma microsporum” (Mycomagic Biotechnology Co., Ltd., priority 2010, dated 2015)
# Like-named read-outs stand apart in the source and are kept apart here.
# B1: GMI: immunomodulatory protein from Ganoderma microsporum, amino acid sequence SEQ ID NO: 3, manufactured by Mycomagic Biotechnology Co., Ltd. (protein, listed as Ganoderma microsporum)
# chain: MSDTALIFTLAWNVKQLAFDYTPNWGRGRPSSFIDTVTFPTVLTDKAYTYRVVVSGKDLGVRPSYAVESDGSQKINFLEYNSGYGIADTNTIQVYVIDPDTGNNFIVAQWN
# Columns and labels:
# [1] = test system: A549 cells; experiment: Wound-healing assay; format: cell-based, human; details: 24 h
# Experimental: Wound-healing assay was carried out to evaluate the inhibitory effects of (A) GMI or (B) AG1478 on A549 cell migration. Confluent monolayers of A549 cells were scarred, and repair was monitored microscopically after 24 h of treatment with (A) GMI or (B) AG1478. The cells migrating into the wound area were counted on the basis of the dashed line as time zero. On wound-healing assay, the cancer cells were cultured onto 24-well plates and grown in medium containing 10% FBS to nearly confluent cell monolayer. A plastic pipette tip was used to draw a linear “wound” in the cell monolayer of each well. The monolayer was then washed twice with PBS to remove debris or detached cells, and GMI was added at different concentrations ([…]). PBS was added to the control well as the solvent control. After 24 h of incubation, the cells were washed twice with PBS, fixed with 95% alcohol, and stained with 10% Giemsa solution (Merck). The cells were photographed under a light microscope (magnification, ×200). The experiments were performed in triplicate. After incubation with 2-8 μg/ml of GMI for 24 h, the cells that migrated to the denuded zone were photographed.
# [2] = test system: HL-60(TB); format: cell-based
# [3] = test system: RPMI-8226; experiment: NCI60 in vitro screening, Leukemia; format: cell-based
# [4] = test system: SR; experiment: NCI60 in vitro screening, Leukemia; format: cell-based
# [5] = test system: M14; experiment: NCI60 in vitro screening, Melanoma; format: cell-based
# [6] = test system: SK-MEL-5; experiment: NCI60 in vitro screening, Melanoma; format: cell-based
# [7] = test system: OVCAR-8; experiment: NCI60 in vitro screening, Ovarian Cancer; format: cell-based
# [8] = test system: NCI/ADR-RES; experiment: NCI60 in vitro screening, Ovarian Cancer; format: cell-based
# [9] = test system: SK-OV-3; experiment: NCI60 in vitro screening, Ovarian Cancer; format: cell-based
# [10] = test system: A498; experiment: NCI60 in vitro screening, Renal Cancer; format: cell-based
# [11] = test system: ACHN; experiment: NCI60 in vitro screening, Renal Cancer; format: cell-based
# [12] = test system: CAKI-1; experiment: NCI60 in vitro screening, Renal Cancer; format: cell-based
# [13] = test system: SN12C; experiment: NCI60 in vitro screening, Renal Cancer; format: cell-based
# [14] = test system: UO-31; experiment: NCI60 in vitro screening, Renal Cancer; format: cell-based
# [15] = test system: MDA-MB-231/ATCC; experiment: NCI60 in vitro screening, Breast Cancer; format: cell-based
# [16] = test system: HOP-92; format: cell-based; details: HOP-92, one dose
# [17] = test system: LOX IMVI; experiment: NCI60 in vitro screening, Melanoma; format: cell-based; details: one dose
molecule,measurement,setting,value
B1,A549 cell migration to the denuded zone,[1]; GMI 2-8 μg/ml,dose-dependently suppresses A549 cell migration
same,EGF-induced migration / wound closure activity,[1]; co-treated with EGF,markedly decreased wound closure activity
same,TGI,[2],>1.25E2
same,Percent Growth,[2]; Log10 Concentration 0.1,105%
same,Percent Growth,[2]; Log10 Concentration 1.1,105%
same,Percent Growth,[2]; Log10 Concentration 2.1,92%
same,Percent Growth,[2]; Log10 Concentration −0.9,99%
same,Percent Growth,[2]; Log10 Concentration −1.9,100%
same,Growth Percent,[2]; one dose,116.48%
same,TGI,[3]; RPMI-8226,>1.25E2
same,Percent Growth,"[3]; RPMI-8226, Log10 Concentration 0.1",105%
same,Percent Growth,"[3]; RPMI-8226, Log10 Concentration 1.1",100%
same,Percent Growth,"[3]; RPMI-8226, Log10 Concentration 2.1",72%
same,Percent Growth,"[3]; RPMI-8226, Log10 Concentration −0.9",102%
same,Percent Growth,"[3]; RPMI-8226, Log10 Concentration −1.9",105%
same,Growth Percent,"[3]; RPMI-8226, one dose",96.01%
same,TGI,[4],>1.25E2
same,Percent Growth,[4]; Log10 Concentration 0.1,96%
same,Percent Growth,[4]; Log10 Concentration 1.1,17%
same,Percent Growth,[4]; Log10 Concentration 2.1,1%
same,Percent Growth,[4]; Log10 Concentration −0.9,96%
same,Percent Growth,[4]; Log10 Concentration −1.9,98%
same,GI50,[4]; in µg/mL,4.79E0
same,Growth Percent,[4]; one dose,32.47%
same,TGI,[5]; M14,>1.25E2
same,Percent Growth,"[5]; M14, Log10 Concentration 0.1",106%
same,Percent Growth,"[5]; M14, Log10 Concentration 1.1",76%
same,Percent Growth,"[5]; M14, Log10 Concentration 2.1",1%
same,Percent Growth,"[5]; M14, Log10 Concentration −0.9",96%
same,Percent Growth,"[5]; M14, Log10 Concentration −1.9",98%
same,Growth Percent,"[5]; M14, one dose",94.87%
same,GI50,"[5]; M14, in µg/mL",2.78E1
same,TGI,[6]; SK-MEL-5,4.26E1
same,Percent Growth,"[6]; SK-MEL-5, Log10 Concentration 0.1",103%
same,Percent Growth,"[6]; SK-MEL-5, Log10 Concentration 1.1",94%
same,Percent Growth,"[6]; SK-MEL-5, Log10 Concentration 2.1",−83%
same,Percent Growth,"[6]; SK-MEL-5, Log10 Concentration −0.9",101%
same,Percent Growth,"[6]; SK-MEL-5, Log10 Concentration −1.9",101%
same,Growth Percent,"[6]; SK-MEL-5, one dose",83.26%
same,GI50,"[6]; SK-MEL-5, in µg/mL",2.22E1
same,LC50,"[6]; SK-MEL-5, in µg/mL",8.17E1
same,TGI,[7]; OVCAR-8,>1.25E2
same,Percent Growth,"[7]; OVCAR-8, Log10 Concentration 0.1",99%
same,Percent Growth,"[7]; OVCAR-8, Log10 Concentration 1.1",91%
same,Percent Growth,"[7]; OVCAR-8, Log10 Concentration 2.1",31%
same,Percent Growth,"[7]; OVCAR-8, Log10 Concentration −0.9",95%
same,Percent Growth,"[7]; OVCAR-8, Log10 Concentration −1.9",98%
same,Growth Percent,"[7]; OVCAR-8, one dose",76.68%
same,GI50,"[7]; OVCAR-8, in µg/mL",6.00E1
same,TGI,[8],>1.25E2
same,Percent Growth,[8]; Log10 Concentration 0.1,105%
same,Percent Growth,[8]; Log10 Concentration 1.1,81%
same,Percent Growth,[8]; Log10 Concentration 2.1,19%
same,Percent Growth,[8]; Log10 Concentration −0.9,100%
same,Percent Growth,[8]; Log10 Concentration −1.9,102%
same,GI50,[8]; in µg/mL,3.94E1
same,TGI,[9]; SK-OV-3,>1.25E2
same,Percent Growth,"[9]; SK-OV-3, Log10 Concentration 0.1",107%
same,Percent Growth,"[9]; SK-OV-3, Log10 Concentration 1.1",94%
same,Percent Growth,"[9]; SK-OV-3, Log10 Concentration 2.1",55%
same,Percent Growth,"[9]; SK-OV-3, Log10 Concentration −0.9",103%
same,Percent Growth,"[9]; SK-OV-3, Log10 Concentration −1.9",103%
same,Growth Percent,"[9]; SK-OV-3, one dose",89.18%
same,TGI,[10]; A498,7.07E1
same,Percent Growth,"[10]; A498, Log10 Concentration 0.1",114%
same,Percent Growth,"[10]; A498, Log10 Concentration 1.1",108%
same,Percent Growth,"[10]; A498, Log10 Concentration 2.1",−35%
same,Percent Growth,"[10]; A498, Log10 Concentration −0.9",102%
same,Percent Growth,"[10]; A498, Log10 Concentration −1.9",107%
same,Growth Percent,"[10]; A498, one dose",98.16%
same,GI50,"[10]; A498, in µg/mL",3.17E1
same,TGI,[11],3.62E1
same,Percent Growth,[11]; Log10 Concentration 0.1,103%
same,Percent Growth,[11]; Log10 Concentration 1.1,36%
same,Percent Growth,[11]; Log10 Concentration 2.1,−42%
same,Percent Growth,[11]; Log10 Concentration −0.9,99%
same,Percent Growth,[11]; Log10 Concentration −1.9,109%
same,GI50,[11]; in µg/mL,7.65E0
same,Growth Percent,[11]; one dose,−33.94%
same,TGI,[12]; CAKI-1,7.29E1
same,Percent Growth,"[12]; CAKI-1, Log10 Concentration 0.1",98%
same,Percent Growth,"[12]; CAKI-1, Log10 Concentration 1.1",47%
same,Percent Growth,"[12]; CAKI-1, Log10 Concentration 2.1",−14%
same,Percent Growth,"[12]; CAKI-1, Log10 Concentration −0.9",100%
same,Percent Growth,"[12]; CAKI-1, Log10 Concentration −1.9",100%
same,Growth Percent,"[12]; CAKI-1, one dose",96.04%
same,GI50,"[12]; CAKI-1, in µg/mL",1.08E1
same,TGI,[13],>1.25E2
same,Percent Growth,[13]; Log10 Concentration 0.1,99%
same,Percent Growth,[13]; Log10 Concentration 1.1,81%
same,Percent Growth,[13]; Log10 Concentration 2.1,30%
same,Percent Growth,[13]; Log10 Concentration −0.9,104%
same,Percent Growth,[13]; Log10 Concentration −1.9,102%
same,GI50,[13]; in µg/mL,5.05E1
same,Growth Percent,[13]; one dose,74.30%
same,TGI,[14]; UO-31,2.65E1
same,Percent Growth,"[14]; UO-31, Log10 Concentration 0.1",119%
same,Percent Growth,"[14]; UO-31, Log10 Concentration 1.1",38%
same,Percent Growth,"[14]; UO-31, Log10 Concentration 2.1",−77%
same,Percent Growth,"[14]; UO-31, Log10 Concentration −0.9",102%
same,Percent Growth,"[14]; UO-31, Log10 Concentration −1.9",97%
same,Growth Percent,"[14]; UO-31, one dose",14.01%
same,GI50,"[14]; UO-31, in µg/mL",8.79E0
same,LC50,"[14]; UO-31, in µg/mL",7.22E1
same,TGI,[15],3.65E1
same,Percent Growth,[15]; Log10 Concentration 0.1,93%
same,Percent Growth,[15]; Log10 Concentration 1.1,41%
same,Percent Growth,[15]; Log10 Concentration 2.1,−47%
same,Percent Growth,[15]; Log10 Concentration −0.9,96%
same,Percent Growth,[15]; Log10 Concentration −1.9,103%
same,GI50,[15]; in µg/mL,8.34E0
same,Growth Percent,[15]; one dose,23.69%
same,Growth Percent,[16],22.29%
same,Growth Percent,[17],67.70%
